27 molecules from patent US20220098591, “STEM-LOOP COMPOSITIONS AND METHODS FOR INHIBITING VASCULAR ENDOTHELIAL GROWTN FACTOR” (DRIVE THERAPEUTICS LLC, published 2022) can be followed below.

Sequences and labels used below:
B1: Aptamer 276 (ssRNA)
RNA: ACCCGCGCGGAGGGGUUUCAUUAUCCCGUUUGU
modifications: G 2'-F except 2'-OMe-G as X in AC-Sp3-CCGCGCGGAGGGXUUUCAUUAUCCCGUUUGU; A,C,U 2'-OMe; Sp3 joins the two parts; 5' C6NH2; 3' idT
B2: Aptamer 285 (ssRNA)
RNA: CGACCCGCGCGGAGGGGUUUCAUAAUCCCGUUUGUCG
modifications: G 2'-F except 2'-OMe-G as X in CXAC-Sp3-CCGCGCGGAGGGXUUUCAUAAUCCCGUUUXUCX; A,C,U 2'-OMe; Sp3 joins the two parts; 5' C6NH2; 3' idT
B3: Aptamer 196 (ssRNA)
RNA: AGGCCGACCCGCGCGGAGGGGUUUCAUUAUCCCGUUUGUCGGCUU
modifications: G 2'-F except G22 2'-OMe; A,C,U 2'-OMe; Sp3 joins the two parts; 5' C6NH2; 3' idT
B4: Aptamer 198 (ssRNA)
RNA: B3 RNA
modifications: G 2'-F except G39 2'-OMe; A,C,U 2'-OMe; Sp3 joins the two parts; 5' C6NH2; 3' idT

The first series deals with T1, VEGF-A121 (Homo sapiens, UniProt P15692 SEQ:1-121). Nature of the series: cell_activity; KDR phosphorylation in HEK293-KDR. The conditions noted are these: tags: glycan biotinylated in TR-FRET; Biolegend in the cell assay; chain copies: 2. As for the experimental part:
(§1) Briefly, HEK293 cells engineered to stably overexpress KDR were plated overnight in collagen coated 96 well plates at 50 k cells/well. Aptamers in SB1+ (40 mM HEPES, pH 7.5, 125 mM NaCl, 5 mM KCl, 1 mM MgCl₂) were heated to 90° C. for 3 minutes and allowed to cool to room temperature for a minimum of 10 minutes. […] 15 μL of VEGF-A was added to 15 μL titrated aptamer in a polypropylene plate and diluted to 300 μL with TS buffer (10 mM Tris pH 7.5; 100 mM NaCl; 5.7 mM KCl; 1 mM MgCl₂; 1 mM CaCl₂). The aptamer/VEGF-A mixture was incubated at 37° C. for 30 minutes, after which 100 μL was added to the cells for 5 minutes at 37° C. in 5% CO₂. Treatments were aspirated from cells, and cells were lysed with 100 μL cold lysis buffer [20 mM Tris-HCl, pH 7.5, 150 mM NaCl, 1 mM EDTA, 1% Triton X-100, 0.5 mM sodium orthovanadate (freshly prepared), 1 mM PMSF (freshly prepared), lx protease inhibitor cocktail (freshly prepared)] on ice for 10 minutes. Plates were centrifuged at 4000×g for 10 minutes before transferring the cell lysis to the AlphaLISA® assay plate.
(§2) To perform the AlphaLISA® assay, 10 μL of cell lysis was transferred to a white low volume 384 well Optiplate (Perkin Elmer). […] 10 μL of this reagent mixture was added to the assay plate that contained 10 μL of cell lysate. The assay plate was sealed and incubated in the dark for approximately 2 hours, then was read on a Biotek CYTATION™ 5 plate reader using the Alpha 384 well optical cube. Percent inhibition was calculated by subtracting TS buffer background from each value and normalizing to VEGF-A only controls. The values were fit by using a four-parameter non-linear fit in GraphPad Prism Version 7.0.
(In general: TR-FRET usually uses a lanthanide donor and a delayed reading to cut background.)
Regarding UAGGCCGCCUCCGCGCGGAGGGGUUUCAUUAUCCCGUUUGGCGGCCUU (ssRNA, 2'-F G; 2'-OMe A,C,U; 5' C6NH2; 3' idT), the activity is more than 50 % inhibition at 100 nM.

Molecule UAGACCGCCUCCGCGCGGAGGGGUUUCAUUAUCCCGUUUGGCGGCUUU (ssRNA, 2'-F G; 2'-OMe A,C,U; 5' C6NH2; 3' idT) returned an activity of more than 50 % inhibition at 100 nM.

UAGUCCGCCUCCGCGCGGAGGGGUUUCAUUAUCCCGUUUGGCGGCUUU (ssRNA, 2'-F G; 2'-OMe A,C,U; 5' C6NH2; 3' idT) returned an activity of more than 50 % inhibition at 100 nM.

For the molecule UAGGCCGCCUCCGCGCGGAGGGGUUUCAUUUAUCCCGUUUGGCGGCUUU (ssRNA, 2'-F G; 2'-OMe A,C,U; 5' C6NH2; 3' idT), the activity was more than 50 % inhibition at 100 nM.

For the next series, the target named is T1, VEGF-A121. The series can be described thus: competition; TR-FRET. The conditions noted are these: tags: glycan-biotinylated for SPR/FRET/AlphaLISA; Acro BioSystems, Biolegend; chain copies: 2 (stated). The procedure: (§3) Briefly, for competition TR-FRET, 2-fold dilutions of thermally equilibrated aptamers were made in TR-FRET Buffer (50 mM MOPS, pH 7.4, 125 mM NaCl, 5 mM KCl, 50 μM CHAPS, 0.1 mg/mL BSA, 1 mM CaCl₂, and 1 mM MgCl₂). 5 μL of aptamer or control solution was added to a 15 μL mix of glycan biotinylated […] (5 nM final), ALEXA FLUOR® 647-labeled Aptamer (30 nM final), and Streptavidin-Eu (Perkin Elmer; 2.5 nM final) in a black wall low volume 384 well plate (Greiner). For control, 5 μl of 1000-fold excess of unlabeled parent aptamer or 5 μl TR-FRET buffer alone was added to the mix of ALEXA FLUOR® 647-labeled aptamer, biotin-VEGF-A, and Streptavidin-Eu. The plate was covered with a plate seal and subsequently incubated in the dark for 1 hour at room temperature. The plate was read on a Biotek CYTATION™ 5 plate reader. Samples were excited at 330 nm and fluorescent values were collected at 665 nm. Data analysis was performed by subtracting the background value and plotting as percent inhibition, normalized to baseline in the absence of competitor. The values were fit by [Inhibitor] vs. response-Variable slope (four parameters) using GraphPad Prism Version 7.0 and then normalized to aptamer control to obtain an IC₅₀ relative to parent aptamer. Data is presented as log values of relative IC₅₀.
On to B1, for which the binding signal is > 100 fold worse IC50 vs Aptamer 141.

For the molecule AGGCCGCCUCCGCGCGGAGGGGUUCAUUAUCCCGUUUGGCGGCUU (ssRNA, all G 2'-F; A,C,U 2'-OMe; Sp3 joins the two parts; 5' C6NH2; 3' idT) [Aptamer 63], the binding result was “binds”.

As for AGGCCGCCUCCGCGCGGAGGGGUUUCAUUUCCCGUUUGGCGGCUU (ssRNA, all G 2'-F; A,C,U 2'-OMe; Sp3 joins the two parts; 5' C6NH2; 3' idT) [Aptamer 68], the binding signal was > 100 fold worse IC50 vs Aptamer 26.

On to AGGCCGCCUCCGCGCGGAGGGGUUUCAUAUCCCGUUUGGCGGCUU (ssRNA, all G 2'-F; A,C,U 2'-OMe; Sp3 joins the two parts; 5' C6NH2; 3' idT) [Aptamer 66], for which the binding result is on record as “binds”.

For the molecule AGGCCGCCUCCGCGCGGAGGGGUUUCUUAUCCCGUUUGGCGGCUU (ssRNA, all G 2'-F; A,C,U 2'-OMe; Sp3 joins the two parts; 5' C6NH2; 3' idT) [Aptamer 65], the binding result is given as “binds”.

As for AGGCCGCCUCCGCGCGGAGGGGUUUCAUAUCCCGUUUGGCGGCUU (ssRNA, all G 2'-F; A,C,U 2'-OMe; Sp3 joins the two parts; 5' C6NH2; 3' idT) [Aptamer 67], the binding result is given as “binds”.

As to B2, the binding signal is ~10 fold better IC50 vs Aptamer 141.

Another series addresses T1, VEGF-A121. Nature of the series: competition; TR-FRET; stem S1 mispaired. As to conditions: tags: glycan-biotinylated for SPR/FRET/AlphaLISA; Acro BioSystems, Biolegend; chain copies: 2 (stated). As for the experimental part:
as §3, with “IC₅₀. […]” for “IC₅₀.”
Turning to AGGCCGCAUCCGCGCGGAGGGGUUUCAUUAUCCCGUUUAACCGCUU (ssRNA, all G 2'-F; A,C,U 2'-OMe; 5' C6NH2; 3' idT) [Aptamer 180], the binding signal is > 100 fold worse IC50 vs Aptamer 26.

Consider AGGCCGCAUCCGCGCGGAGGGGUUUCAUUAUCCCGUUUAACCGAUU (ssRNA, all G 2'-F; A,C,U 2'-OMe; 5' C6NH2; 3' idT) [Aptamer 181], for which the binding signal is > 100 fold worse IC50 vs Aptamer 26.

The target of another series is T1, VEGF-A121. The series can be described thus: competition; TR-FRET; stem S3 mispaired. As to conditions: tags: glycan-biotinylated for SPR/FRET/AlphaLISA; Acro BioSystems, Biolegend; chain copies: 2 (stated). The procedure:
as §3, with “IC₅₀. […]” for “IC₅₀.”
Turning to AGGCCGCCUCCGCGCGGAGCCGUUUCAUUAUCCCGUUUGGCGGCUU (ssRNA, all G 2'-F; A,C,U 2'-OMe; 5' C6NH2; 3' idT) [Aptamer 184], the binding signal was > 100 fold worse IC50 vs Aptamer 26.

Consider AGGCCGCCUCCGCGCGGAGGGGUUUCAUUAUAACGUUUGGCGGCUU (ssRNA, all G 2'-F; A,C,U 2'-OMe; 5' C6NH2; 3' idT) [Aptamer 185], for which the binding signal is > 100 fold worse IC50 vs Aptamer 26.

The target of the next series is T1, VEGF-A121. Nature of the series: competition; TR-FRET. The conditions noted are these: tags: glycan-biotinylated for SPR/FRET/AlphaLISA; Acro BioSystems, Biolegend; chain copies: 2 (stated). The source holds these as a separate data set. As for the experimental part: as §3
Starting at position 6, 2′F-G residues were systematically replaced, one at a time, and the activity of the resultant molecule was assessed by competition TR-FRET, as described in Example 7, against the parent molecule, Aptamer 141.
GCCGACCCGCGCGGAGGGGUUUCAUUACCCCGUUUGUCGGC (ssRNA, all G 2'-F; A,C,U 2'-OMe; Sp3 joins the two parts; 5' C6NH2; 3' idT) [Aptamer 199]: the binding signal was ~2 fold better IC50 vs Aptamer 141.

On to B3, for which the binding signal is ~2 fold better IC50 vs Aptamer 141.

For the molecule B4, the binding signal is ~2 fold better IC50 vs Aptamer 141.

The target of a further series is T1, VEGF-A121. Nature of the series: competition; TR-FRET. As to conditions: tags: glycan-biotinylated for SPR/FRET/AlphaLISA; Acro BioSystems, Biolegend; chain copies: 2 (stated). This is another data set of the same source.
Target sequence in this assay (P15692 other isoform, or with tags, fused parts or gaps): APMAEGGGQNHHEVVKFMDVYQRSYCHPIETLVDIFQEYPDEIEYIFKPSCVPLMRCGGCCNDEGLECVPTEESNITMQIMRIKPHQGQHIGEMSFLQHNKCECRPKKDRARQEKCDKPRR
As for AGGCCGCACCGCGCGGAGGGGUUUCAUUAUCCCGUUUUGCGGCUU (ssRNA, all G 2'-F; A,C,U 2'-OMe; Sp3 joins the two parts; 5' C6NH2; 3' idT) [Aptamer 143], the binding result was “binds”.

For the molecule AGGCCGUCCCGCGCGGAGGGGUUUCAUUAUCCCGUUUGACGGCUU (ssRNA, all G 2'-F; A,C,U 2'-OMe; Sp3 joins the two parts; 5' C6NH2; 3' idT) [Aptamer 142], the binding result is reported as “binds”.

For AGGCCGCUCCGCGCGGAGGGGUUUCAUUAUCCCGUUUAGCGGCUU (ssRNA, all G 2'-F; A,C,U 2'-OMe; Sp3 joins the two parts; 5' C6NH2; 3' idT) [Aptamer 144], the binding result was “binds”.

The next series addresses T2, VEGF-A165 (Homo sapiens).
T2 chain: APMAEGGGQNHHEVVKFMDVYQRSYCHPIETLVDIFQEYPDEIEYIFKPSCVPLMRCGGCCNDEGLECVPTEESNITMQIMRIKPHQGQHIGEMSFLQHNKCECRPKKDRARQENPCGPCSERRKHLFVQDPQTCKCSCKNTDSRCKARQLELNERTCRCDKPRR
The series can be described thus: cell_activity; KDR phosphorylation; >50% at 100 nM with VEGF-A121. As to conditions: tags: glycan-biotinylated for SPR/FRET/AlphaLISA; Acro BioSystems, R&D Systems; chain copies: 2 (inferred). As for the experimental part:
as §1, §2
In general terms: Bead proximity is the source of the signal in Alpha formats.
For UAGUCCGCCUCCGCGCGGAGGGGUUUCAUUAUCCCGUUUGGCGGCUUU (ssRNA, all G 2'-F; A,C,U 2'-OMe; 5' C6NH2; 3' idT), the activity is more than 50 % inhibition at 10 nM.

As for UAGACCGCCUCCGCGCGGAGGGGUUUCAUUAUCCCGUUUGGCGGCUUU (ssRNA, all G 2'-F; A,C,U 2'-OMe; 5' C6NH2; 3' idT), the activity is more than 50 % inhibition at 10 nM.

For UAGGCCGCCUCCGCGCGGAGGGGUUUCAUUAUCCCGUUUGGCGGCCUU (ssRNA, all G 2'-F; A,C,U 2'-OMe; 5' C6NH2; 3' idT), the activity is more than 50 % inhibition at 10 nM.

Turning to UAGGCCGCCUCCGCGCGGAGGGGUUUCAUUUAUCCCGUUUGGCGGCUUU (ssRNA, all G 2'-F; A,C,U 2'-OMe; 5' C6NH2; 3' idT), the activity is more than 50 % inhibition at 10 nM.

The target in the next series is T1, VEGF-A121. Nature of the series: competition; TR-FRET; stem S2 mispaired. As to conditions: tags: glycan-biotinylated for SPR/FRET/AlphaLISA; Acro BioSystems, Biolegend; chain copies: 2 (stated). As for the experimental part: as §3, with “IC₅₀. […]” for “IC₅₀.”
Regarding AGGCCGCCUUUGCGCUUAGGGGUUUCAUUAUCCCGUUUGGCGGCUU (ssRNA, all G 2'-F; A,C,U 2'-OMe; 5' C6NH2; 3' idT) [Aptamer 182], the binding signal is > 100 fold worse IC50 vs Aptamer 26.

For the molecule AGGCCGCCUCCGCGCCCAGGGGUUUCAUUAUCCCGUUUGGCGGCUU (ssRNA, all G 2'-F; A,C,U 2'-OMe; 5' C6NH2; 3' idT) [Aptamer 183], the binding signal was > 100 fold worse IC50 vs Aptamer 26.
